{
  "source": "patent US20050100554A1",
  "about": "(published 2005)",
  "binders": {"B1": {"name": "chemokine-like factor 1 (other)", "chain": "MDNVQPKIKHRPFCFSVKGHVKMLRLALTVTSMTFFIIAQAPEPYIVITGFEVTVILFFILLYVLRLDRLMKWLFWPLLDIINSLVTTVFMLIVSVLALIPETTTLTVGGGVFALVTAVCCLADGALIYRKLLFNPSGPYQKKPVHEKKEVL", "notes": "also called HSPC224; CKLF1"}, "B2": {"name": "hypothetical protein MGC3222 (other)", "chain": "VVSPDSIHSVAPENEGRLVHIIGALRTSKLLSDPNYGVHLPAVKLRRHVEMYQWVETEESREYTEDGQVKKETRYSYNTEWRSEIINSKNFDREIGHNNPSAMAVESFTATAPFVQIGRFFLSSGLIDKVDNFKSLSLSKLEDPHVDIIRRGDFFYHSENPKYPEVGDLRVSFSYAGLSGDDPDLGPAHVVTVIARQRGDQLVPFSTKSGDTLLLLHHGDFSAEVSAVPYSYGGGTSMSFLPSSGYLIRSHYQGS", "notes": "also called cbe_3583511"}, "B3": {"name": "HCDI protein (other)", "chain": "MGWRRKRVPQRGRKAPPPQLHGNINNLYFPIRWRDRLHWDSPNPAAECQRHEVTLVSRKPGPGRITWDELAASGLPSCDAAVNLAGENILNPLRRWNETFQKEVLGSRLETTQLLAKAITKAPQPPKAWVLVTGVAYYQPSLTAEYDEDSPGGDFDFFSNLVTKWEAAARLPGDSTRQVVVRSGVVLGRGGGAMGHMLLPFRLGLGGPIGSGHQFFPWIHIGDLAGILTHALEANHVHGVLNGVAPSSATNAEFAQTLGAALGRRAFIPLPSAVVQAVFGRQRAIMLLEGQKVIPQRTLATGYQYSFPELGAALKEIVA", "notes": "also called cbe_1505425"}, "B4": {"name": "low molecular mass ubiquinone-binding protein (9.5 kD) (other)", "chain": "MGREFGNLTRMRHVISYSLSPFEQRAYPHVFTKGIPNVLRRIRESFFRVVPQFVVFYLIYTWGTEEFERSKRRIQLPMKMTNEQRIRMTVPCL", "notes": "also called QP-C; cbe_1710"}, "B5": {"name": "Human papillomavirus 16 L2 (other)", "chain": "MRHKRSAKRTKRASATQLYKTCKQAGTCPPDIIPKVEGKTIAVQILQYGSMGVFFGGLGIGTGSGTGGRTGYIPLGTRPPTATDTLAPVRPPLTVDPVGPSDPSIVSLVEETSFIDAGAPTSVPSIPPDVSGFSITTSTDTTPAILDINNTVTTVTTHNNPTFTDPSVLQPPTPAETGGHFTLSSSTISTHNYEEIPMDTFIVSTNPNTVTSSTPIPGSRPVARLGLYSRTTQQVKVVDPAFVTTPTKLITYDNPAYEGIDVDNTLYFSSNDNSINIAPDPDFLDIVALHRPALTSRRTGIRYSRIGNKQTLRTRSGKSIGAKVHYYYDLSTIDPAEEIELQTITPSTYTTTSHAASPTSINNGLYDIYADDFITDTSTTPVPSVPSTSLSGYIPANTTIPFGGAYNIPLVSGPDIPINITDQAPSLIPIVPGSPQYTIIADAGDFYLHPSYYMLRKRRKRLPYFFSDVSLAA", "notes": "also called HPV 16 L2; cbe_251737"}, "B6": {"name": "eukaryotic translation initiation factor 2B, subunit 2 beta, 39 kDa (other)", "chain": "MPGSAAKGSELSERIESFVETLKRGGGPRSSEEMARETLGLLRQIITDHRWSNAGELMELIRREGRRMTAAQPSETTVGNMVRRVLKIIREEYGRLHGRSDESDQQESLHKLLTSGGLNEDFSFHYAQLQSNIIEAINELLVELEGTMENIAAQALEHIHSNEVIMTIGFSRTVEAFLKEAARKRKFHVIVAECAPFCQGHEMAVNLSKAGIETTVMTDAAIFAVMSRVNKVIIGTKTILANGALRAVTGTHTLALAAKHHSTPLIVCAPMFKLSPQFPNEEDSFHKFVAPEEVLPFTEGDILEKVSVHCPVFDYVPPELITLFISNIGGNAPSYIYRLMSELYHPDDHVL", "notes": "also called EIF2B2; cbe_3625721"}, "B7": {"name": "crystallin, alpha B (other)", "chain": "MDIAIHHPWIRRPFFPFHSPSRLFDQFFGEHLLESDLFPTSTSLSPFYLRPPSFLRAPSWFDTGLSEMRLEKDRFSVNLDVKHFSPEELKVKVLGDVIEVHGKHEERQDEHGFISREFHRKYRIPADVDPLTITSSLSSDGVLTVNGPRKQVSGPERTIPITREEKPAVTAAPKK", "notes": "also called CRYAB; cbe_4281271"}, "B8": {"name": "Prey2777 (other)", "chain": "MNPVPHWGEVFLLVGGEGEHLASQGTTPARDHRVGISPASQQAQPESWRRRQRDKGVDPEKAPSLTRQSQNPPSLTAPLGMPSACSCLPCGPAPEAAIILAGPPTALTVLPKGTGLKKSKRLLLESLMRRRIAHLKWGLPRRILESYFLFNFLGSCSLTLAGARLSGLNTGQELQAQQERYCEAQGSPPGLKSPERFQRVQRPDRKSSKLPIQARALERNRPHMSEPIKHFHPA", "notes": "also called FLJ23584; hypothetical protein FLJ23584"}, "B9": {"name": "KIAA0276 (other)", "chain": "MHSDAAAVNFQLNSHLSTLANIHKIYHTLNKLNLTEDIGQDDHQTGSLRSCSSSDCFNKVMPPRKKRRPASGDDLSAKKSRHDSMYRKYDSTRIKTEEEAFSSKRCLEWFYEYAGTDDVVGPEGMEKFCEDIGVEPENVVMLVLAWKLDAQNMGYFTLQEWLKGMTSLQCDTTEKLRNTLDYLRSFLNDSTNFKLIYRYAFDFAREKDQRSLDINTAKCMLGLLLGKIWPLFPVFHQFLEQSKYKVINKDQWCNVLEFSRTINLDLSNYDEDGAWPVLLDEFVEWYKDKQMS", "notes": "also called cbe_4270335"}, "B10": {"name": "Rab coupling protein (other)", "chain": "MSLMVSAGRGLGAVWSPTHVQVTVLQARGLRAKGPGGTSDAYAVIQVGKEKYATSVSERSLGAPVWREEATFELPSLLSSGPAAAATLQLTVLHRALLGLDKFLGRAEVDLRDLHRDQGRRKTQWYKLKSKPGKKDKERGEIEVDIQFMRNNMTASMFDLSMKDKSRNPFGKLKDKIKGKNKDSGSDTASAIIPSTTPSVDSDDESVVKDKKKKSKIKTLLSKSNLQKTPLSQSMSVLPTSKPEKVLLRPGDFQSQWDEDDNEDESSSASDVMSHKRTASTDLKQLNQVNFTLPKKEGLSFLGGLRSKNDVLSRSNVCINGNHVYLEQPQPTGEIKDSSPSSSPSPKGFRKKTLFSSTENLAAGSWKEPAEGGGLSTDRDVSESSTKDSLKSMTLPTYRPAPLISGDLREKMAPANSEATKEAKESKKPESRRSSLLSLMTGKKDVAKGSEGENLLTVPGREKEGMLMGVKPGEDASGPAEDLVRRSEKDTAAVVSRQGSSLNLFEDVQITEPEAEPESKSEPRPPISSPRAPQTRAVKPRLHPVKPMNATATKVANCSLGTATIISENLNNEVMMKKYSPSDPAFAYAQLTHDELIQLVLKQKETISKKEFQVRELEDYIDNLLVRVMEETPNILRIPTQVGKKAGKM", "notes": "also called Hs.30289; RCP"}},
  "key": {"[1]": {"molecular_target": "B5", "assay": "Y2H; INT ID 188"}, "[2]": {"molecular_target": "T1, Human Papillomavirus 1a E2 (Human Papillomavirus 1a, UniProt P03118 1-401)", "T1 construct": "also called HPV 1a E2; cbe_251917", "T1 sequence": "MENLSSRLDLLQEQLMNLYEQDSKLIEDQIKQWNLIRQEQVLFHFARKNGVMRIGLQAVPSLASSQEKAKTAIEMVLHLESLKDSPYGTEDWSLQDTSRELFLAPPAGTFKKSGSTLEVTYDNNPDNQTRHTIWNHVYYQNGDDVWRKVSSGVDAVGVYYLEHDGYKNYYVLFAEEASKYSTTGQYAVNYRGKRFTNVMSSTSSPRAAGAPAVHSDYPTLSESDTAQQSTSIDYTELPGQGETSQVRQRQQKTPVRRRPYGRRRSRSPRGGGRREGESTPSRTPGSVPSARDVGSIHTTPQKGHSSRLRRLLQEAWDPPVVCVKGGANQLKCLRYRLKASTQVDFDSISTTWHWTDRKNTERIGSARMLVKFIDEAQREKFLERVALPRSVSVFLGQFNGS", "assay": "Y2H; INT ID 415"}, "[3]": {"molecular_target": "T2, Human papillomavirus 16 L1 (Human papillomavirus 16, UniProt P03101 1-505)", "T2 construct": "also called HPV 16 L1; cbe_251784", "T2 sequence": "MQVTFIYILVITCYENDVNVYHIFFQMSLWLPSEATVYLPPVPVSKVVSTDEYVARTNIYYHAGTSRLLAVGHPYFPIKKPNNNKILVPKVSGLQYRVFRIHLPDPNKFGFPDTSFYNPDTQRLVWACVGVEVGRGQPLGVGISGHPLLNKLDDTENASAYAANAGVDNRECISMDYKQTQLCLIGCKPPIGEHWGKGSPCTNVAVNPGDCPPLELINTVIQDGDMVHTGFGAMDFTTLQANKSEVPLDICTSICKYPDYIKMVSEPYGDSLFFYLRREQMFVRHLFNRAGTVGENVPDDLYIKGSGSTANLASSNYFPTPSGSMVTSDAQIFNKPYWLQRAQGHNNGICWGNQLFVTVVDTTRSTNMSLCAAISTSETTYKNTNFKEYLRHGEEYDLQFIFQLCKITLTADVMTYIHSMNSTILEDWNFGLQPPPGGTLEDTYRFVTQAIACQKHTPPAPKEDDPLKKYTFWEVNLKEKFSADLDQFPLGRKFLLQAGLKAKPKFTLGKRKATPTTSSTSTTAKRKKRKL", "assay": "Y2H; INT ID 196"}, "[4]": {"molecular_target": "T1, Human Papillomavirus 1a E2", "assay": "Y2H; INT ID 383"}, "[5]": {"molecular_target": "T3, signal-induced proliferation-associated 1 like 1 (human, UniProt O43166 1-1804)", "T3 construct": "also called KIAA0440; cbe_3056756", "T3 sequence (O43166 whole entry)": "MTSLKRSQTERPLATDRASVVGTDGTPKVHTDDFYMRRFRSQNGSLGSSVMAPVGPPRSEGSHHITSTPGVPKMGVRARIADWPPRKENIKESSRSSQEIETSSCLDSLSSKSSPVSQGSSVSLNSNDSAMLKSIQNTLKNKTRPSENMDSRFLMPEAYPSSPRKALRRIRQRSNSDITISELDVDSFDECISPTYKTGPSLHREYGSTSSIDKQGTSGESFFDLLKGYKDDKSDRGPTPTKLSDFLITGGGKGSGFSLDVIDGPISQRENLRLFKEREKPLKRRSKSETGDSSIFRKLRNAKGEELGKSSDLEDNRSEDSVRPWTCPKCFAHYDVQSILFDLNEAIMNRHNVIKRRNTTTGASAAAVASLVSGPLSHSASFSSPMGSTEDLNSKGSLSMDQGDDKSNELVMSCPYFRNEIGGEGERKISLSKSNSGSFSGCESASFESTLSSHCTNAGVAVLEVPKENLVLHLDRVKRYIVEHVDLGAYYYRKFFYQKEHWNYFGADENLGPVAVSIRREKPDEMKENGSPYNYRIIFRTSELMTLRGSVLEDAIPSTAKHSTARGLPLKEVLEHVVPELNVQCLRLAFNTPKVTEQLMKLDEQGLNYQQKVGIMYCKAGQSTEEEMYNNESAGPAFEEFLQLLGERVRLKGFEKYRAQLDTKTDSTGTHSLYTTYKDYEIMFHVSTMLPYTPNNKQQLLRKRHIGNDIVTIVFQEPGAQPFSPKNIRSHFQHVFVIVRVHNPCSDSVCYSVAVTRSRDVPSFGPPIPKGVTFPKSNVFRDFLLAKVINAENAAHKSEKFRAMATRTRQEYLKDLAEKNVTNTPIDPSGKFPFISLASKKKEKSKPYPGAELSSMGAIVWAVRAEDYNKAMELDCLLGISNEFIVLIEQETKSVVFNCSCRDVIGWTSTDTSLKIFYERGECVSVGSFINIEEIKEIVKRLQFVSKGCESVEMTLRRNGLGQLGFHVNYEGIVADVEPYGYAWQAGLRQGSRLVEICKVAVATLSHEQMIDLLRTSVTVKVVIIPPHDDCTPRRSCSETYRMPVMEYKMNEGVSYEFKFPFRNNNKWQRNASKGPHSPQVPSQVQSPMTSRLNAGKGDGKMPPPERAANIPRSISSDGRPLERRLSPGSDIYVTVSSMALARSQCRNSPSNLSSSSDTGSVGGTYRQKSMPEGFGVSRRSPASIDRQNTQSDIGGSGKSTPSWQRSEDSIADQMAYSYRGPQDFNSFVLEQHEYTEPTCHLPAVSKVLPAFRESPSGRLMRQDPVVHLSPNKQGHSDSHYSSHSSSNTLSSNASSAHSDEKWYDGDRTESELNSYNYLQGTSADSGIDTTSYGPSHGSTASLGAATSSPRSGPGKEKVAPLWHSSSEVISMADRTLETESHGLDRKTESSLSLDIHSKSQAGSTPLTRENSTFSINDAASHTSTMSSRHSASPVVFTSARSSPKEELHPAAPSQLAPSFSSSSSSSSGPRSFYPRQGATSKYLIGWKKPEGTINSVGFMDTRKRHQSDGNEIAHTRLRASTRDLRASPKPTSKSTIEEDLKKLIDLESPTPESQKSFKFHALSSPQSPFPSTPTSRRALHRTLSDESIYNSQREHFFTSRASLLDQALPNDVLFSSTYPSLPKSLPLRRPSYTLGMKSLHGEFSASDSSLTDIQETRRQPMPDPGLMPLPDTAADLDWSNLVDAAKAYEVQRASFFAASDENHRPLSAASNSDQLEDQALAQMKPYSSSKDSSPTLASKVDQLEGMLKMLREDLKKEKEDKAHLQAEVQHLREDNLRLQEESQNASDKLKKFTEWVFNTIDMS", "assay": "Y2H; INT ID 184"}, "[6]": {"molecular_target": "T4, KIAA1389 protein (human, UniProt Q9P2F8 219-1722)", "T4 construct": "also called cbe_3663966", "T4 sequence (Q9P2F8 other isoform, or with tags, fused parts or gaps limits assumed)": "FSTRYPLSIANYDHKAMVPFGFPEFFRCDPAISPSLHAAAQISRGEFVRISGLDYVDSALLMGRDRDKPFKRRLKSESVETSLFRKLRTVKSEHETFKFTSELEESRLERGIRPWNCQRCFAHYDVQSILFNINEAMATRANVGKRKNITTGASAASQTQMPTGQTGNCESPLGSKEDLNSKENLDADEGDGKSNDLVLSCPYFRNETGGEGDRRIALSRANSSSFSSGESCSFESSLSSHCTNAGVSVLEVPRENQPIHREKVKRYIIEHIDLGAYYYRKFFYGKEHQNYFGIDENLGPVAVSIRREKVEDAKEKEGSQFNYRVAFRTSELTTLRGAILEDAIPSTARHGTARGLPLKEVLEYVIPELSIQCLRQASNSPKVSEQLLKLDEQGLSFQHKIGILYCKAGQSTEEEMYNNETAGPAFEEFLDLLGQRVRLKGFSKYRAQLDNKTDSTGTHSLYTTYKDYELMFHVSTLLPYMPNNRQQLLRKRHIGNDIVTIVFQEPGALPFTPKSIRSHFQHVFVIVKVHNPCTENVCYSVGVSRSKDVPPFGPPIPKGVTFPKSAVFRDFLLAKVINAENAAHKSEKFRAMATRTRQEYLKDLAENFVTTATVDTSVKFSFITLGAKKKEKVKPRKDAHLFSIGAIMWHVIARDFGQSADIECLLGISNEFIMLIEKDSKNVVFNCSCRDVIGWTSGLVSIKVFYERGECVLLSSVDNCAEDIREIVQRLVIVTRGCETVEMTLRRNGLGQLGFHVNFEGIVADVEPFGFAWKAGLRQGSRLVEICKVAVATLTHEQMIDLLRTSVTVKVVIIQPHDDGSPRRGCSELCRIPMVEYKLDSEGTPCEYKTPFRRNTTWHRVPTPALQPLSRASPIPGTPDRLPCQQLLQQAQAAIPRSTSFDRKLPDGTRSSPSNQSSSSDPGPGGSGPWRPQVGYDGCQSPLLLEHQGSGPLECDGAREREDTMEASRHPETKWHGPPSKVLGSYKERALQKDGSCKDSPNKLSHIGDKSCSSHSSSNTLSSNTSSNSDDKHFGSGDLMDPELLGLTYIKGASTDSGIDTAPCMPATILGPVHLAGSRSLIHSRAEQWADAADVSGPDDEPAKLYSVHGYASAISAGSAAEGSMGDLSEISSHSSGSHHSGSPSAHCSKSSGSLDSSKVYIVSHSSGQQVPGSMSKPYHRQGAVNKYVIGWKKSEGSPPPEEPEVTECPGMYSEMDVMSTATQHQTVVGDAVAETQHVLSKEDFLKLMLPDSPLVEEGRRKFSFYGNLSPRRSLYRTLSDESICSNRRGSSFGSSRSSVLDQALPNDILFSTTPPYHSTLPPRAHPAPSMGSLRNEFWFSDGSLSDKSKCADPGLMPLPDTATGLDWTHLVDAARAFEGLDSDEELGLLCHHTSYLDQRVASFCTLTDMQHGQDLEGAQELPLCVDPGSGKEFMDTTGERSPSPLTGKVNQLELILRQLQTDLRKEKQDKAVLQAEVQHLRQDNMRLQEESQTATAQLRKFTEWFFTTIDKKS", "assay": "Y2H; INT ID 187"}, "[7]": {"molecular_target": "T5, gbh_al121903 (human, UniProt Q9Y6D5 1145-1785)", "T5 construct": "also called cbe_3473488", "T5 sequence": "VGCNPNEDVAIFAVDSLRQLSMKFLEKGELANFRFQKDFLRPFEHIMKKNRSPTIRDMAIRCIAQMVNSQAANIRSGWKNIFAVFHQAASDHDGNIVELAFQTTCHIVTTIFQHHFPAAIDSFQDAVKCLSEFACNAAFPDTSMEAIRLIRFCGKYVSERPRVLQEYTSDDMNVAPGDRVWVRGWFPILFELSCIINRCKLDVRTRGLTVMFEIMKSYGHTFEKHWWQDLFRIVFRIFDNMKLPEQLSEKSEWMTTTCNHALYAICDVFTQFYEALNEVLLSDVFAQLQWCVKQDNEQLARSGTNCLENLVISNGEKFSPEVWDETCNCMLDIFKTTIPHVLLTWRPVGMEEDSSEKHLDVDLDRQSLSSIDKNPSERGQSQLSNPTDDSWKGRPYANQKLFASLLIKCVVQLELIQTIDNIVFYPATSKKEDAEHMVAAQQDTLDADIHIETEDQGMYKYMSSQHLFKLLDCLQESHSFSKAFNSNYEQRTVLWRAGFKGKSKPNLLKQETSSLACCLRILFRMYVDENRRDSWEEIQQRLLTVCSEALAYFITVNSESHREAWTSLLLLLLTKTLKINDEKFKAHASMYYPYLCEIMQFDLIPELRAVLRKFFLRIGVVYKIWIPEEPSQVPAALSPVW", "assay": "Y2H; INT ID 185"}, "[8]": {"molecular_target": "T1, Human Papillomavirus 1a E2", "assay": "Y2H; INT ID 416"}, "[9]": {"molecular_target": "T2, Human papillomavirus 16 L1", "assay": "Y2H; INT ID 197"}, "[10]": {"molecular_target": "T1, Human Papillomavirus 1a E2", "assay": "Y2H; INT ID 410"}, "[11]": {"molecular_target": "B5", "assay": "Y2H; INT ID 191"}, "[12]": {"molecular_target": "B5", "assay": "Y2H; INT ID 189"}},
  "data": [
    {"binder": "B1", "values": [
      {"measurement": "binding result", "setting": "[1]", "value": "binds"}
    ]},
    {"binder": "B2", "values": [
      {"measurement": "binding result", "setting": "[2]", "value": "binds"}
    ]},
    {"binder": "B3", "values": [
      {"measurement": "binding result", "setting": "[3]", "value": "binds"}
    ]},
    {"binder": "B4", "values": [
      {"measurement": "binding result", "setting": "[4]", "value": "binds"}
    ]},
    {"binder": "B5", "values": [
      {"measurement": "binding result", "setting": "[5]", "value": "binds"},
      {"measurement": "binding result", "setting": "[6]", "value": "binds"},
      {"measurement": "binding result", "setting": "[7]", "value": "binds"}
    ]},
    {"binder": "B6", "values": [
      {"measurement": "binding result", "setting": "[8]", "value": "binds"}
    ]},
    {"binder": "B7", "values": [
      {"measurement": "binding result", "setting": "[9]", "value": "binds"}
    ]},
    {"binder": "B8", "values": [
      {"measurement": "binding result", "setting": "[10]", "value": "binds"}
    ]},
    {"binder": "B9", "values": [
      {"measurement": "binding result", "setting": "[11]", "value": "binds"}
    ]},
    {"binder": "B10", "values": [
      {"measurement": "binding result", "setting": "[12]", "value": "binds"}
    ]}
  ]
}
